Here are results for one molecule from US20180235193A1 (MINERVA BIOTECHNOLOGIES, published 2018).

The target in this test is T1, recombinant human NME7-AB (human, UniProt Q9Y5B8 92-376).
T1 construct: Truncated recombinant human NME7, about 33 kDa, active as a monomer; also called rhMNE7-AB
T1 sequence: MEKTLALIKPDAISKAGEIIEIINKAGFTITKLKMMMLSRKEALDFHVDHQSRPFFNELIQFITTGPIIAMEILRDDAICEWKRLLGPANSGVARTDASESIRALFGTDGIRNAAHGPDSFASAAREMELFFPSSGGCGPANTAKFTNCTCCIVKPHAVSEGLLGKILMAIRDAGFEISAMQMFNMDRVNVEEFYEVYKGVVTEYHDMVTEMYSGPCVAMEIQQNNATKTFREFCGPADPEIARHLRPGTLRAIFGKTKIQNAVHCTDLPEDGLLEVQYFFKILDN
In words: sandwich ELISA, PSMGFR peptide coated on the surface, HRP signal. In general terms: In an ELISA, binding on a coated surface is turned into a signal by an enzyme label.

B1: MUC1* extracellular domain peptide PSMGFR (peptide)
peptide: GTINVHDVETQFNQYKTEAASRYNLTISDVSVSDVPFPFSAQSGA
notes: Synthetic peptide; also called PSMGFR peptide; MUC1* peptide
For the molecule B1, the binding result is given as “binds”.
